The results in this text go back to the DeepSol protein solubility set.

A short description of the series: soluble on expression in E. coli; label from the status in PepcDB or PDB records.
Turning to “MSLAMALFQSAPHSLCILRLSAIGDVCNTIAAVQAIQRQWPQTRITWVTGKLEAELIQSLPDIQVIVFDKKLGWRAYTQLWQQLKSERFDALLHMQYAFRASIATLGIKARYKLGFDAARSQDFQTWFTNVKVPSPDKMHVLDGLLAFVEHLGIRDIEPKWSLTCQPDDLTWAEAQFQPEQPRLVVVPGASKAYKNWTAEGYAAVIEHAQQQGWQVILAGSPAQVERDLAAQVEQALAHPVLNLVGKSTLQQMLALLAKADLVIAPDTGPAHMANAMHTPIIGLYAHHNPERTGPYHYRHYVVSAYQEALLAETGKMPQQVDWRTRVKDPNAMQRITAQQVIAMFERAAADIMATQVNDEGHHHHHH”, the “soluble on expression in E. coli” value is given as “soluble”.

On to “MEYRSLTLDDFLSRFQLLRPQINRETLNHRQAAVLIPIVRRPQPGLLLTQRSIHLRKHAGQVAFPGGAVDDTDASAIAAALREAEEEVAIPPSAVEVIGVLPPVDSVTGYQVTPVVGIIPPDLPYRASEDEVSAVFEMPLAQALHLGRYHPLDIYRRGDSHRVWLSWYEQYFVWGMTAGIIRELALQIGVKPMGHHHHHHSH”, for which the “soluble on expression in E. coli” value is given as “not soluble”.

For “MASNSRSSISPWTFSQNKMFERALAVYDKDTPDRWHNVAKAVGGKTVEEVKRHYDILVEDLINIETGRVPLPNYKTFESNSRSINDFDTRYITKYLYMMLSIYFDNHSSDFEKFSQKVLVSYISLV”, the “soluble on expression in E. coli” value is on record as “soluble”.

For the sequence “MGSDKIHHHHHHMMFEFNFARAMASLREEYAKDAKINIQHVWQNETAAVIAKALATEVSFDNAMFVENKPMRISDQQIRQLPVEAQKDLQQKILQNAANGIGFLYGSHLVGGLDGKPSPELLTSLHRFINSPDMFKFIQSITGIEGICYASLQASRYIQGNFLTRHNDVVESEGRKVAFVFGFTPEWHPDWGGLLQFYTPKGVLTDTWVPTFNNLALFDVHHPHSVSFVAPFAKRPRFSVTGWFRTIAPSK”, the “soluble on expression in E. coli” value was “not soluble”.

“MKQLYATIRFNGYEEAADKGDLAVHKLVAAALDDAEASLKDLFAQQIFGDGTGNSGKDLTGLKAYVDDGTAVAVYGGIDRATNPWWKANVKKSANNKVLDIKQMREVFAKCSRGGMENKPDFIVTDLNTWLQYAELVDGKTTIQQPLGKVAEEFANLGFAQLSFMGIPVVYDEYCPAYTMYFINSNTFQLYGKPGRMFTTSEIVKIPDEDSKVGQIFFAGEFVGTEPRANGRLDLTVS”: the “soluble on expression in E. coli” value is recorded as “not soluble”.

As to “MGSDKIHHHHHHMNEDYQKTIEFHGHECPGVTIGYRVSKYVLDHYERSEDEQLVAIVENNSCSIDGIQQMLGCTFGKGNLKFKDNGKHVYTFYSRGNDKALRIYLKYNLAEKVGNFNKKFNEGTLTAEDEKQMFERRKEAIKHLMEAPEEELFDVQWVEIEEPKKARLYPSLTCENCGETFMEIKGRTIDGKIVCKECFQKLVH”, the “soluble on expression in E. coli” value is on record as “not soluble”.

Take “MGSDKIHHHHHHMTDSTIDALNKKLDRLIEAVGRLAPPPVPETDLAEADCFVWQADPGYLEPVRKVNRVDIGLIRGVDRVRDILVDNTERFAAGFAANNVLLWGARGMGKSSLVKAVHAEINAKSKSQKAKSDLPLKLIEIHREDIDTLPKLMGLLKAAPFRVILFCDDLSFDHDDTSYKSLKAALEGGVEGRPANVIFYATSNRRHLLPRDMIDNERSTAINPSEAVEEKVSLSDRFGLWLGFHKCSQDEYLEMVNAYASHHGLDIDPEQLRAEALEWATTRGSRSGRVAWQFTQDLAGRLGKPLKD”: the “soluble on expression in E. coli” value is listed as “not soluble”.

“MGSDKIHHHHHHMSGTHDTKQAIASALIELCEQKDFRKISVQDITKKVGLNRQTFYYHFTDKYDLLRWIYRHDALIYLETDICLENWEEQALKLLKAIKEKSHFYYTTVTSDSEVLLNVFSASTNRLFISLFEQVDVENHLTDKDKQFYANFFSYGCSGVLTKWILEEYPQTPLEMATQLFRLAKDTEFMAYHLYEQEANE”: the “soluble on expression in E. coli” value was “not soluble”.

“MGSDKIHHHHHHVTEAQTDPKYYDVVEATWPCLRCEKLGDITLRVGAGGGSRVSAATCDALVSDAQIAQAEAAMQDFDQPRLFMIRDGQDALDGQLERLGYAVMDPVALWTVAPSMLTDVEIPRVTTFCLWEPLAIQREIWATGGIGPERLAIMERATRPKTSILGRWDDKPAGAAFVGMHEGIAMLHALEILPHQRRKGMGVWMMRQAAYWAAEQGATELAVLCTRANAGANALYARLGMQQAGGYHYRIKR”: the “soluble on expression in E. coli” value was “not soluble”.

Consider “MKNSDLYNGTLRTSFVPGSTLEAGIIFRATIPNGEFYEKEAGLSYYWLYILNGTVSFQRVENGEISNENKKYFPYGTSSAYEAKILLDDGDIYCYLNNRLVFHYTDENPLQGHQYGLKSEGSNLIVTEFATSSLEAPQHNEYLIFGHSYTDFWKTYKQDFHKYQDIYNIGIGGAITSDWCSEGYQKEVIAYQPKYGIYWNGINDINRNIAPKTIGDNVRRMAMEIKAAVPGFHLVLIGVCRCPIDSGRRSDIASTNNYYKQIASDLDYVTYIDTELMYCDSNGNEIANYFTDGLHPTHDAYIMCANAIMNTIK”, for which the “soluble on expression in E. coli” value was “soluble”.

In the case of “AIFGGDGFKDWIGEFSLFKELNEATEMFGKEDEEGTAATETEKADESTDGGMVKHDTNKAESLKKDKLSKEQREKLMEMEKKRREDMMKQVDELAEKLNEKISRYLIAVKSNNLEEFTRKLDQEIEDLKLESFGLELLYLLARVYKTKANNFIMSKKTYGISKIFTGTRDNARSVKSAYNLLSTGLEAQKAMEKMSEVNTDELDQYERAKFESTMAGKALGVMWAMSKFELERKLKDVCNKILNDKKVPSKERIAKAKAMLFIAHKFASARRSPEEAEEARVFEELILGEQEKEHKKHTVAR”, the “soluble on expression in E. coli” value is “not soluble”.

In the case of “MDAFIVDPVQGELYSGLSHTELADIIRLADSVENQLNGGNSFLDVFSTYMGQVISEFMHSNDNRIELLQRRLHSCSFLVNIEEMSYIDEALQCPITLAIPQRGVFLRNAEGSRVCSLYDEMALSRIINDGMHHPLSREPITLSMLVAREQCEFDCSIGHFTVRSDCYSV”, the “soluble on expression in E. coli” value is “soluble”.

As to “PSEHLEHLFQYIVNDDKTYMKKLVSGHGIVDPTNPYEEFKLTKLQAAIQRKIGYTFDPKSERLLPPTLTELEKGNAVLAHHLIQSFSPEDDLTPEKIHEIGYNTVMELTGGEYEFVIATHVDKEHLHNHIIFSSTNLKTGKAFRWQKGTKKVFEQISDKIAAKEGAKIIEKSPKQTHTKYTKWQTESIYKQKIKSRLDFLLEQSSSINDFLEKAEALNLSADFSNKWTTYRLLDEPQIKNTRSRSLSKSDPTRYNYEKIIERLKENKNVL”, the “soluble on expression in E. coli” value is “not soluble”.

In the case of “MPSTNLTKRDWEKDHVYLVQFPRAGCIPSPSPYAFKVETFLRVADIPYTNINNEFKKMSARGQIPFIELNGRQHADSTIIIDNLTEHFHKSDLEDLSASDKAIARAFFALLEHHLCWVSLYSRGQDFGWLATDTGFGRLLTGIKGFAFKNFIVKSFTKKVRGRAAAQGMGTFSREEVLDQAKKDLDAISTQLGDKPYLFGSSIKTIDVTAFAHLAELIYTPQFSPEIRAYIDEKVPNVMEYVIRIKEKYWPDWEETTNTMNMATVWKKA”, the “soluble on expression in E. coli” value was “not soluble”.

As for “MELPILPTSVIGSYPKPRWLLRMYRLRDLGKIPEEDFKEAVKDASVSVLREHERAGVDIPWDGEMWRTEMTEHFTAKIGGFKFYGPVRVWGNAYFNKAAAVDKLEYKEPLVLEEFLWVKKNTTREVVKIPITGPYTIAEWSFNEYYPDKESFIMDLAKIINKELKMLENHGALYIQLDEPAMLNHPDEVPLAVEAINKAVKGIKIKVGLHVCYSNYYLLADYFDEIRVTQFALEFANRQFRDMDFLKKLSNKELGFGVVDVHNPRIESVEEIVKAIKKVFEYVEPELLYINPDCGMKLLDRNIAYNKLVNMVKATELVRKELEREGKKTTEFRTLKDILEHHHHHH”, the “soluble on expression in E. coli” value is “not soluble”.

Consider “MKALHFGAGNIGRGFIGKLLADAGIELTFADVNQTVLDALNARHSYQVHVVGENEQVDTVSGVNAVSSIGDEVVDLIAEVDLVTTAVGPVVLERIAPAIAKGLAQRKAQGTERPLNIIACENMVRGTTQLKGHVFNALAEEHKAWVEAHIGFVDSAVDRIVPPSASATHDPLEVTVETFSEWIVDKTQFKGALPTIPGMELTDNLMAFVERKLFTLNTGHAITAYLGKLAGHQTIRDAILDEKIRAVVQGAMEESGAVLIKRYAFDPQKHAAYIQKILGRFENPYLKDDVERVGRQPLRKLSAGDRLIKPLLGTLEYGLPHRNLVKGIAAAMHFRSEDDPQAQELAALIADKGPQAALAQISGLDAASDVVAEAVNDYNAEK”, for which the “soluble on expression in E. coli” value was “not soluble”.
